The values that follow come from the supplement of paper PMC5998384.

Data set [1] deals with HeLa Kyoto. As to the kind of experiment: solubility change mitosis vs G1/S (difference of NP-40 vs SDS log2 ratios) (log2 ratio difference); higher = more soluble in mitosis.
Data set [2] concerns HeLa Kyoto. As to the kind of experiment: solubility in G1/S (NP-40 vs SDS abundance) (log2 ratio); higher = more soluble. To be noted: cell cycle stage: G1/S.
Data set [3] concerns HeLa Kyoto. As to the kind of experiment: thermal stability score vs G1/S (z-score of summed log2 fold changes over temperatures); higher = more thermally stable than in G1/S.
The mark [4] stands for this setting: cell cycle stage: early G1 (4.5 h after nocodazole release).
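For solubility change mitosis vs G1/S (difference of NP-40 vs SDS log2 ratios) in this document: synchronized HeLa Kyoto cells (double thymidine block for G1/S, nocodazole release for mitosis), protein amounts in NP-40 versus SDS lysates quantified by mass spectrometry, three biological replicates.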
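For solubility in G1/S (NP-40 vs SDS abundance) in this document: HeLa Kyoto cells arrested at G1/S by double thymidine block, proteins quantified by TMT10plex mass spectrometry in mild NP-40 versus SDS extracts, three biological replicates.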
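For thermal stability score vs G1/S (z-score of summed log2 fold changes over temperatures) in this document: synchronized HeLa Kyoto cells, proteins quantified by TMT10plex mass spectrometry, three biological replicates, mitosis taken 0.5 h after nocodazole release, G1/S directly after double thymidine block.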

Consider “MAGVGDAAAPGEGGGGGVDGPQRDGRGEAEQPGGSGGQGPPPAPQLTETLGFYESDRRRERRRGRTELSLLRFLSAELTRGYFLEHNEAKYTERRERVYTCLRIPRELEKLMVFGIFLCLDAFLYVFTLLPLRVFLALFRLLTLPCYGLRDRRLLQPAQVCDILKGVILVICYFMMHYVDYSMMYHLIRGQSVIKLYIIYNMLEVADRLFSSFGQDILDALYWTATEPKERKRAHIGVIPHFFMAVLYVFLHAILIMVQATTLNVAFNSHNKSLLTIMMSNNFVEIKGSVFKKFEKNNLFQMSNSDIKERFTNYVLLLIVCLRNMEQFSWNPDHLWVLFPDVCMVIASEIAVDIVKHAFITKFNDITADVYSEYRASLAFDLVSSRQKNAYTDYSDSVARRMGFIPLPLAVLLIRVVTSSIKVQGILSYACVILFYFGLISLKVLNSIVLLGKSCQYVKEAKMEEKLSNPPATCTPGKPSSKSQNKCKPSQGLSTEENLSASITKQPIHQKENIIPLLVTSNSDQFLTTPDGDEKDITQDNSELKHRSSKKDLLEIDRFTICGNRID [TAPT1]”, for which the “solubility change mitosis (log2)” value in data set [1] amounted to 0.0176. Also, the “solubility in G1/S (log2)” value in data set [2] was -0.313. For the same sequence, the thermal stability score in data set [3] (setting [4]) was -2.91; in data set [3] (cell cycle stage: mitosis) it was -4.92.

As for “MALFYVARYPGPDAAAAAGPEGAEAGAHGRARALLERLQSRARERQQQREPAQTEAAASTEPATRRRRRPRRRRRVNDAEPGSPEAPQGKRRKADGEDAGAESNEEAPGEPSAGSSEEAPGEPSAGSSEEAPGERSTSASAEAAPDGPALEEAAGPLVPGLVLGGFGKRKAPKVQPFLPRWLAEPNCVRRNVTEDLVPIEDIPDVHPDLQKQLRAHGISSYFPVQAAVIPALLESAACGFLVGRGGYRPSDLCVSAPTGSGKTLAFVIPVVQALLSRVVCHIRALVVLPTKELAQQVSKVFNIYTDATPLRVSLVTGQKSLAKEQESLVQKTADGYRCLADIVVATPGRLVDHIDQTPGFSLQQLRFLIIDEADRMIDSMHQSWLPRVVAAAFQSEDPADPCALLQRRQAQAVTAASTCCPQMPLQKLLFSATLTQNPEKLQQLGLHQPRLFSTGLAHRGLEDTDGDGDSGKYAFPVGLTHHYVPCSLSSKPLVVLHLVLEMGFSRVLCFTNSRENSHRLFLLVQAFGGVDVAEFSSRYGPGQRRMILKQFEQGKIQLLISTDATARGIDVQGVELVVNYDAPQYLRTYVHRVGRTARAGKTGQAFTLLLKVQERRFLRMLTEAGAPELQRHELSSKLLQPLVPRYEEALSQLEESVKEERKQRAA [DDX51]”, in data set [1], the “solubility change mitosis (log2)” value was found to be 1.23. Besides, the “solubility in G1/S (log2)” value in data set [2] is -1.48. In addition, the thermal stability score in data set [3] (setting [4]) was -0.0942; in data set [3] (cell cycle stage: mitosis) it was 1.3.

In the case of “MARACLQAVKYLMFAFNLLFWLGGCGVLGVGIWLAATQGSFATLSSSFPSLSAANLLIITGAFVMAIGFVGCLGAIKENKCLLLTFFLLLLLVFLLEATIAILFFAYTDKIDRYAQQDLKKGLHLYGTQGNVGLTNAWSIIQTDFRCCGVSNYTDWFEVYNATRVPDSCCLEFSESCGLHAPGTWWKAPCYETVKVWLQENLLAVGIFGLCTALVQILGLTFAMTMYCQVVKADTYCA [TSPAN4]”, in data set [1], the “solubility change mitosis (log2)” value worked out at 0.125. The “solubility in G1/S (log2)” value in data set [2] is -0.165. The thermal stability score in data set [3] (setting [4]) is -5.28e-17; in data set [3] (cell cycle stage: mitosis), 1.16e-18.

As for “MATIEEIAHQIIEQQMGEIVTEQQTGQKIQIVTALDHNTQGKQFILTNHDGSTPSKVILARQDSTPGKVFLTTPDAAGVNQLFFTTPDLSAQHLQLLTDNSPDQGPNKVFDLCVVCGDKASGRHYGAVTCEGCKGFFKRSIRKNLVYSCRGSKDCIINKHHRNRCQYCRLQRCIAFGMKQDSVQCERKPIEVSREKSSNCAASTEKIYIRKDLRSPLTATPTFVTDSESTRSTGLLDSGMFMNIHPSGVKTESAVLMTSDKAESCQGDLSTLANVVTSLANLGKTKDLSQNSNEMSMIESLSNDDTSLCEFQEMQTNGDVSRAFDTLAKALNPGESTACQSSVAGMEGSVHLITGDSSINYTEKEGPLLSDSHVAFRLTMPSPMPEYLNVHYIGESASRLLFLSMHWALSIPSFQALGQENSISLVKAYWNELFTLGLAQCWQVMNVATILATFVNCLHNSLQQDKMSTERRKLLMEHIFKLQEFCNSMVKLCIDGYEYAYLKAIVLFSPDHPSLENMEQIEKFQEKAYVEFQDYITKTYPDDTYRLSRLLLRLPALRLMNATITEELFFKGLIGNIRIDSVIPHILKMEPADYNSQIIGHSI [NR2C1]”, the “solubility change mitosis (log2)” value in data set [1] was -0.0241. For the same sequence, the “solubility in G1/S (log2)” value in data set [2] is 0.173. The figures for the thermal stability score in data set [3] (setting [4]) and in data set [3] (cell cycle stage: mitosis) were 0.319 and 0.185, respectively.

As for “MEEEDEEARALLAGGPDEADRGAPAAPGALPALCDPSRLAHRLLVLLLMCFLGFGSYFCYDNPAALQTQVKRDMQVNTTKFMLLYAWYSWPNVVLCFFGGFLIDRVFGIRWGTIIFSCFVCIGQVVFALGGIFNAFWLMEFGRFVFGIGGESLAVAQNTYAVSWFKGKELNLVFGLQLSMARIGSTVNMNLMGWLYSKIEALLGSAGHTTLGITLMIGGITCILSLICALALAYLDQRAERILHKEQGKTGEVIKLTDVKDFSLPLWLIFIICVCYYVAVFPFIGLGKVFFTEKFGFSSQAASAINSVVYVISAPMSPVFGLLVDKTGKNIIWVLCAVAATLVSHMMLAFTMWNPWIAMCLLGLSYSLLACALWPMVAFVVPEHQLGTAYGFMQSIQNLGLAIISIIAGMILDSRGYLFLEVFFIACVSLSLLSVVLLYLVNRAQGGNLNYSARQREEIKFSHTE [MFSD1]”, the “solubility change mitosis (log2)” value in data set [1] is -0.327. The “solubility in G1/S (log2)” value in data set [2] was -0.268. In addition, the thermal stability score in data set [3] (setting [4]) is -0.307; in data set [3] (cell cycle stage: mitosis) it was -0.166.

With “MEGVSALLARCPTAGLAGGLGVTACAAAGVLLYRIARRMKPTHTMVNCWFCNQDTLVPYGNRNCWDCPHCEQYNGFQENGDYNKPIPAQYLEHLNHVVSSAPSLRDPSQPQQWVSSQVLLCKRCNHHQTTKIKQLAAFAPREEGRYDEEVEVYRHHLEQMYKLCRPCQAAVEYYIKHQNRQLRALLLSHQFKRREADQTHAQNFSSAVKSPVQVILLRALAFLACAFLLTTALYGASGHFAPGTTVPLALPPGGNGSATPDNGTTPGAEGWRQLLGLLPEHMAEKLCEAWAFGQSHQTGVVALGLLTCLLAMLLAGRIRLRRIDAFCTCLWALLLGLHLAEQHLQAASPSWLDTLKFSTTSLCCLVGFTAAVATRKATGPRRFRPRRFFPGDSAGLFPTSPSLAIPHPSVGGSPASLFIPSPPSFLPLANQQLFRSPRRTSPSSLPGRLSRALSLGTIPSLTRADSGYLFSGSRPPSQVSRSGEFPVSDYFSLLSGSCPSSPLPSPAPSVAGSVASSSGSLRHRRPLISPARLNLKGQKLLLFPSPPGEAPTTPSSSDEHSPHNGSLFTMEPPHVPRKPPLQDVKHALDLRSKLERGSACSNRSIKKEDDSSQSSTCVVDTTTRGCSEEAATWRGRFGPSLVRGLLAVSLAANALFTSVFLYQSLR [TMEM201]”, the “solubility change mitosis (log2)” value in data set [1] came to 0.283. The “solubility in G1/S (log2)” value in data set [2] was -0.162. Besides, the thermal stability score in data set [3] (setting [4]) amounted to 0.522; in data set [3] (cell cycle stage: mitosis) it was 0.638.

In the case of “MELRARGWWLLCAAAALVACARGDPASKSRSCGEVRQIYGAKGFSLSDVPQAEISGEHLRICPQGYTCCTSEMEENLANRSHAELETALRDSSRVLQAMLATQLRSFDDHFQHLLNDSERTLQATFPGAFGELYTQNARAFRDLYSELRLYYRGANLHLEETLAEFWARLLERLFKQLHPQLLLPDDYLDCLGKQAEALRPFGEAPRELRLRATRAFVAARSFVQGLGVASDVVRKVAQVPLGPECSRAVMKLVYCAHCLGVPGARPCPDYCRNVLKGCLANQADLDAEWRNLLDSMVLITDKFWGTSGVESVIGSVHTWLAEAINALQDNRDTLTAKVIQGCGNPKVNPQGPGPEEKRRRGKLAPRERPPSGTLEKLVSEAKAQLRDVQDFWISLPGTLCSEKMALSTASDDRCWNGMARGRYLPEVMGDGLANQINNPEVEVDITKPDMTIRQQIMQLKIMTNRLRSAYNGNDVDFQDASDDGSGSGSGDGCLDDLCSRKVSRKSSSSRTPLTHALPGLSEQEGQKTSAASCPQPPTFLLPLLLFLALTVARPRWR [GPC1]”, in data set [1], the “solubility change mitosis (log2)” value was -0.378. Besides, the “solubility in G1/S (log2)” value in data set [2] is -0.193. For the same sequence, the values for the thermal stability score in data set [3] (setting [4]) and in data set [3] (cell cycle stage: mitosis) were 1.52 and 3.51, respectively.

In the case of “MEQAPPDPERQLQPAPLEPLGSPDAGLGAAVGKEAEGAGEESSGVDTMTHNNFWLKKIEISVSEAEKRTGRNAMNMQETYTAYLIETRSVEHTDGQSVLTDSLWRRYSEFELLRSYLLVYYPHIVVPPLPEKRAEFVWHKLSADNMDPDFVERRRIGLENFLLRIASHPILCRDKIFYLFLTQEGNWKETVNETGFQLKADSRLKALNATFRVKNPDKRFTDLKHYSDELQSVISHLLRVRARVADRLYGVYKVHGNYGRVFSEWSAIEKEMGDGLQSAGHHMDVYASSIDDILEDEEHYADQLKEYLFYAEALRAVCRKHELMQYDLEMAAQDLASKKQQCEELVTGTVRTFSLKGMTTKLFGQETPEQREARIKVLEEQINEGEQQLKSKNLEGREFVKNAWADIERFKEQKNRDLKEALISYAVMQISMCKKGIQVWTNAKECFSKM [SNX4]”, the “solubility change mitosis (log2)” value in data set [1] was -0.0064. Besides, the “solubility in G1/S (log2)” value in data set [2] was 0.0889. Besides, the thermal stability score came out at 0.919 in data set [3] (setting [4]) and 0.324 in data set [3] (cell cycle stage: mitosis).
